Laboratory results published in US20200149021, “SYSTEM AND METHOD FOR GENOME EDITING” (INSTITUTE OF ZOOLOGY, CHINESE ACADEMY OF SCIENCES, published 2020).

Target: T1, HkCpf1 (Helcococcus kunzii)
T1 chain: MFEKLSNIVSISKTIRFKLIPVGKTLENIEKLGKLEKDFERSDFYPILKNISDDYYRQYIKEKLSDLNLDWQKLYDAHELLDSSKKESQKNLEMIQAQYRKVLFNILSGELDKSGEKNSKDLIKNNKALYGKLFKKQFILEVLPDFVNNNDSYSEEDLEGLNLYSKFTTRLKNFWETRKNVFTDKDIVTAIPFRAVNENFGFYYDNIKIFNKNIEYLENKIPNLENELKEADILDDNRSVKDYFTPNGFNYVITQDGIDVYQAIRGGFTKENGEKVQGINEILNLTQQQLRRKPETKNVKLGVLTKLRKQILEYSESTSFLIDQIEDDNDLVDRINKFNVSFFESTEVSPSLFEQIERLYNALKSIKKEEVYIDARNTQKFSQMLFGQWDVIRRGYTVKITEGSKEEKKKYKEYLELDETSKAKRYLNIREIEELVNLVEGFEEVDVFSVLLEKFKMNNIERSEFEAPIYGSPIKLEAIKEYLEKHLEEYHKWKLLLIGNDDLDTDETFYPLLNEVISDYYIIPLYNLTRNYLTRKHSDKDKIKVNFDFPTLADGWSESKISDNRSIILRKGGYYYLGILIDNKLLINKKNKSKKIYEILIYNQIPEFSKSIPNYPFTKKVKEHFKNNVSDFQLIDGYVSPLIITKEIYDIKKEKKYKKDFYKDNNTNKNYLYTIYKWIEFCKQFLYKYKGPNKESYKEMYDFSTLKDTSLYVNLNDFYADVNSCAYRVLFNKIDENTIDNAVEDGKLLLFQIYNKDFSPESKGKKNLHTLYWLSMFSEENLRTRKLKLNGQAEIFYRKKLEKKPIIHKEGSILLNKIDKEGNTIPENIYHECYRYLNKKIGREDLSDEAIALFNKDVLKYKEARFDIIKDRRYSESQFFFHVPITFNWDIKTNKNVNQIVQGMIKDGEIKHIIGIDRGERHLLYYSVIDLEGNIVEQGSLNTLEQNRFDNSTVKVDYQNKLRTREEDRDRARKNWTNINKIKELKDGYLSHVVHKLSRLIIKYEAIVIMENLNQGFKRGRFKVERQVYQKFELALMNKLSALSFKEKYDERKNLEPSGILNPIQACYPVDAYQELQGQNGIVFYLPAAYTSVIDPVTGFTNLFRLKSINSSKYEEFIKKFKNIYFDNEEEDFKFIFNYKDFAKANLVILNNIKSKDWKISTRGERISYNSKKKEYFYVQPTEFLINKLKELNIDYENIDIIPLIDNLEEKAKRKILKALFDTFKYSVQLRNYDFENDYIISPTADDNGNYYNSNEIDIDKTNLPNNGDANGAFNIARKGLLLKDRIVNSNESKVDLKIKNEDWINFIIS
Assay: cell_activity; PAM TTTC; T7EI
Details: tags: HA (2A-eGFP vector)
Protocol: GFP-positive cells were sorted by FACS, lysed with Buffer L+ 1/100V Protease K (Biotool) at 55° C. for 30 min, inactivated at 95° C. for 5 min, and directly used for PCR detection. Appropriate primers were designed near the Cpf1 targeting site, and the amplified product was purified using DNA Clean & Concentrator™-5 kit (ZYMO Research). 200 ng of purified PCR product was added into 1 uL of NEBuffer2 (NEB) and diluted to 10 uL with ddH₂O. Then, heterodimers were formed by re-annealing according to the previously reported method (Li, W., et al., Simultaneous generation and germline transmission of multiple gene mutations in rat using CRISPR-Cas systems. Nat Biotechnol, 2013. 31(8): p. 684-6). The reannealed product was added with 0.3 uL of T7EI endnucelease and 1/10 V NEBuffer2 (NEB), and digested at 37° C. for 1 h 30 min. Genotype analysis was performed by 3% TAE-Gel electrophoresis. Indels were calculated according to the method reported in the previous article (Cong, L., et al., Multiplex genome engineering using CRISPR/Cas systems. Science, 2013. 339(6121): p. 819-23).
The cells were transfected with Cpf1, crRNA31, and crRNA2 plasmids, and it was confirmed by PCR and T7EI analysis that crRNA31 can increase the editing efficiency of five Cpf1s of ArCpf1, BsCpf1, HkCpf1, PrCpf1, and PxCpf1 at the site MeCP2-4 by two folds (FIG. 13B).

B1: crRNA31 MeCP2 site 4 ; Mouse MeCP2 site 4 (ssRNA ; dsDNA)
RNA: AUUUCUACUAUGGUAGAUGUGUCCAACCUUCAGGCAAGGUG
DNA 1: TTTCGTGTCCAACCTTCAGGCAAGGTG
DNA 2: CACCTTGCCTGAAGGTTGGACACGAAA
editing efficiency: ~2 fold vs crRNA2
